The target of the test is Epidermal growth factor receptor (EGFR) on HT29 human colon adenocarcinoma cells (human) (UniProt P00533). The test is described as follows: cell-based or functional assay.

These results are taken from patent US20210100858A1.

In the case of “Hi-D::EGF phage (λF7 phage with maximal EGF surface decoration, generated using SupD E. coli host at 37° C.) (from UniProt P03712 1-110)”, the EOP of phage recovered from HT29 spheroids, intercellular, 30 min came out at 0.00156 EOP; the EOP of phage recovered from HT29 spheroids, intercellular, 4 h is 0.0572 EOP; the EOP of phage recovered from HT29 spheroids, intercellular, 8 h came to 0.0183 EOP; the EOP of phage recovered from HT29 spheroids, intercellular, 24 h was 0.0113 EOP. In addition, the EOP of phage recovered from lysed HT29 cells, intracellular, 30 min worked out at 0.00013 EOP; the EOP of phage recovered from lysed HT29 cells, intracellular, 4 h worked out at 0.00392 EOP; the EOP of phage recovered from lysed HT29 cells, intracellular, 8 h was 0.00147 EOP; the EOP of phage recovered from lysed HT29 cells, intracellular, 24 h came to 0.000312 EOP. The HT29 spheroid diameter on day 20, 10^4 PFU phage is 1330 µm; the HT29 spheroid diameter on day 20, 10^8 PFU phage turned out to be 422 µm; the recovery of phage particles from the interstitial spaces and within cells at 30 min, against wildtype phages came to 150 fold; the size of HT29 spheroids on day 20 against control spheroids, high concentration of phage came out at 3 fold.
